Experimental data from publication PMC5037822, “Molecular and Biochemical Analysis of Two Rice Flavonoid 3’-Hydroxylase to Evaluate Their Roles in Flavonoid Biosynthesis in Rice Grain” (International Journal of Molecular Sciences, 2016).
Substitutions are numbered along the chain they refer to. In names and notes the source's numbering stands.

Assays:
[1] = molecular target: T1, CYP75B4-JJJ (Oryza sativa, UniProt Q8LM92, E7V); assay: substrate feeding of induced yeast, HPLC of […]'-hydroxylated product; format: cell-based; settings: 50 μM substrate, whole yeast WAT11 culture, 28 °C, 7.5 h
T1 construct: full length, 535 residues, natural allele with Val7, C-terminal V5 and 6xHis tags, yeast WAT11 cells with Arabidopsis reductase ATR1
T1 sequence (Q8LM92 1-535 E7V): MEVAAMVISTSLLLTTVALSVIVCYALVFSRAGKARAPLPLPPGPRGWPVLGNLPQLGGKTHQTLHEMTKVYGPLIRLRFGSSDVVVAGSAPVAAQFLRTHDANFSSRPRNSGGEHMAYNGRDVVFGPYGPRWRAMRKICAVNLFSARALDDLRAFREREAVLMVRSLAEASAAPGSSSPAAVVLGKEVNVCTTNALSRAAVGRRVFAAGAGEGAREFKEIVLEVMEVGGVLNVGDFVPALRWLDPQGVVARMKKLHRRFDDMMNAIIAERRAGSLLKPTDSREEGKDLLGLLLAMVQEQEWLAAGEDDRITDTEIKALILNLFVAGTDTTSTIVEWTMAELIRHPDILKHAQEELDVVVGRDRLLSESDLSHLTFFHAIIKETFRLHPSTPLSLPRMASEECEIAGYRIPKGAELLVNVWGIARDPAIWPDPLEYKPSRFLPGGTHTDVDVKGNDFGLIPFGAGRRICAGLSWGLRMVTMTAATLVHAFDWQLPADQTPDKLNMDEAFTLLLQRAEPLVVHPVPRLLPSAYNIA

[2] = molecular target: T2, CYP75B4-HN (Oryza sativa, UniProt Q8LM92, H351Q); assay: as above; format: cell-based; settings: 50 μM substrate, whole yeast WAT11 culture, 28 °C, 7.5 h
T2 construct: full length, 535 residues, natural allele with Gln351, C-terminal V5 and 6xHis tags, yeast WAT11 cells with Arabidopsis reductase ATR1
T2 sequence (Q8LM92 1-535 H351Q): T1 sequence (Q8LM92 1-535 E7V) with V7E, H351Q

[3] = substrate: O=c1cc(-c2ccc(O)cc2)oc2cc(O)cc(O)c12; assay: cells, lysate or membranes; settings: 1 mM NADPH, 100 mM Tris pH 7.5, 30 °C
[4] = substrate: O=c1c(O)c(-c2ccc(O)cc2)oc2cc(O)cc(O)c12; assay: cells, lysate or membranes; format: biochemical, Oryza sativa; settings: 1 mM NADPH, 100 mM Tris pH 7.5, 30 °C
[5] = substrate: O=C1CC(c2ccc(O)cc2)Oc2cc(O)cc(O)c21; assay: cells, lysate or membranes; settings: 1 mM NADPH, 100 mM Tris pH 7.5, 30 °C, racemic substrate
[6] = substrate: O=C1c2c(O)cc(O)cc2OC(c2ccc(O)cc2)C1O; assay: cells, lysate or membranes; format: biochemical, Oryza sativa; settings: 1 mM NADPH, 100 mM Tris pH 7.5, 30 °C, racemic substrate

O=c1cc(-c2ccc(O)cc2)oc2cc(O)cc(O)c12 [API, apigenin]
substrate feeding of induced yeast, HPLC of 3'-hydroxylated product [1]: CYP75B4-IM, CYP75B4-HN, and CYP75B4-JJJ metabolized naringenin, apigenin, and kaempferol | substrate feeding of induced yeast, HPLC of 3'-hydroxylated product [2]: CYP75B4-IM, CYP75B4-HN, and CYP75B4-JJJ metabolized naringenin, apigenin, and kaempferol

O=c1c(O)c(-c2ccc(O)cc2)oc2cc(O)cc(O)c12 [KAM, kaempferol]
substrate feeding of induced yeast, HPLC of 3'-hydroxylated product [1]: CYP75B4-IM, CYP75B4-HN, and CYP75B4-JJJ metabolized naringenin, apigenin, and kaempferol | substrate feeding of induced yeast, HPLC of 3'-hydroxylated product [2]: CYP75B4-IM, CYP75B4-HN, and CYP75B4-JJJ metabolized naringenin, apigenin, and kaempferol

B1: CYP75B4-IM (Oryza sativa Japonica Group) (protein)
chain: T1 sequence (Q8LM92 1-535 E7V) with V7E
notes: full length, 535 residues, C-terminal V5 and 6xHis tags (pYES-DEST52), yeast WAT11 microsomes with Arabidopsis reductase ATR1
Km [3]: 0.240 ± 0.042 µM | Vmax [3]: 0.008 µM/min/mg | Km [4]: 2.948 ± 0.330 µM | Vmax [4]: 0.007 µM/min/mg

B2: CYP75B3-IM (CYP75B3-JJJ) (Oryza sativa Japonica Group) (protein)
chain: MDVVPLPLLLGSLAVSAAVWYLVYFLRGGSGGDAARKRRPLPPGPRGWPVLGNLPQLGDKPHHTMCALARQYGPLFRLRFGCAEVVVAASAPVAAQFLRGHDANFSNRPPNSGAEHVAYNYQDLVFAPYGARWRALRKLCALHLFSAKALDDLRAVREGEVALMVRNLARQQAASVALGQEANVCATNTLARATIGHRVFAVDGGEGAREFKEMVVELMQLAGVFNVGDFVPALRWLDPQGVVAKMKRLHRRYDNMMNGFINERKAGAQPDGVAAGEHGNDLLSVLLARMQEEQKLDGDGEKITETDIKALLLNLFTAGTDTTSSTVEWALAELIRHPDVLKEAQHELDTVVGRGRLVSESDLPRLPYLTAVIKETFRLHPSTPLSLPREAAEECEVDGYRIPKGATLLVNVWAIARDPTQWPDPLQYQPSRFLPGRMHADVDVKGADFGLIPFGAGRRICAGLSWGLRMVTLMTATLVHGFDWTLANGATPDKLNMEEAYGLTLQRAVPLMVQPVPRLLPSAYGV
notes: full length, 526 residues, C-terminal V5 and 6xHis tags (pYES-DEST52), yeast WAT11 microsomes with Arabidopsis reductase ATR1
Km [5]: 0.286 ± 0.015 µM | Vmax [5]: 0.214 µM/min/mg | Km [6]: 2.494 ± 0.350 µM | Vmax [6]: 0.43 µM/min/mg | Km [4]: 0.110 ± 0.008 µM | Vmax [4]: 0.24 µM/min/mg

B3: CYP75B3-HN (Oryza sativa Japonica Group; R27H) (protein)
chain: B2 chain with R27H
notes: full length, 526 residues, natural allele with His27, C-terminal V5 and 6xHis tags, yeast WAT11 microsomes with Arabidopsis reductase ATR1
Km [5]: 0.108 ± 0.009 µM | Vmax [5]: 0.193 µM/min/mg | Km [6]: 1.034 ± 0.107 µM | Vmax [6]: 0.281 µM/min/mg
